Data taken from US20060193821.

Legend:
Test in all cases: filter
[1] = biological target: IL-23 (human, p19/p40 heterodimer) (Homo sapiens) (UniProt Q9NPF7+P29460)
[2] = biological target: T1, IL-12 (mouse, p35/p40 heterodimer) (Mus musculus) (UniProt P43431+P43432); conditions: 2'-F all C and U (rRfY); 1X PBS, 0.1 mg/mL BSA, 30 min RT
T1 sequence 1: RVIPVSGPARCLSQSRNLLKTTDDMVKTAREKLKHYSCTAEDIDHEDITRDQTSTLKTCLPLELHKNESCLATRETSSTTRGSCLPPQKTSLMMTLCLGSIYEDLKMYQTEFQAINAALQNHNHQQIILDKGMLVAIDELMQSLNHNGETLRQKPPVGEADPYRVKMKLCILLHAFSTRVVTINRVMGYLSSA
T1 sequence 2: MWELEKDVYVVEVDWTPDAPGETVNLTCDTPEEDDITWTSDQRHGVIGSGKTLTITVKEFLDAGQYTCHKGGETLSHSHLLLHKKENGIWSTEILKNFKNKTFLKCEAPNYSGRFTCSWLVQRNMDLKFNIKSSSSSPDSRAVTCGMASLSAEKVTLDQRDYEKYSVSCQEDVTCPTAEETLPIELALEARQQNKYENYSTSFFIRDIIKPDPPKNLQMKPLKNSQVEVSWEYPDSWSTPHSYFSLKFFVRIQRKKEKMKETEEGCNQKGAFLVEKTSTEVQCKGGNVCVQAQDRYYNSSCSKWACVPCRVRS

[3] = biological target: T2, IL-23 (mouse, p19/p40 heterodimer) (Mus musculus) (UniProt Q9EQ14+P43432); conditions: 2'-F all C and U (rRfY); 1X PBS, 0.1 mg/mL BSA, 30 min RT
T2 sequence 1: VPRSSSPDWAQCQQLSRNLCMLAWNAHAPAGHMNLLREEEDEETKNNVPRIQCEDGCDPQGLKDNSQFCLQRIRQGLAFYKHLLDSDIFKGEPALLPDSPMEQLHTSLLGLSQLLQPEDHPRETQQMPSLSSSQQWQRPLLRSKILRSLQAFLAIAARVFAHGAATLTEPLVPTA
T2 sequence 2: T1 sequence 2

[4] = biological target: IL-12 (human, p35/p40 heterodimer) (Homo sapiens) (UniProt P29459+P29460)
Sequence of IL-12 (human, p35/p40 heterodimer) (Homo sapiens) (P29459 23-219, chain 1 of 2): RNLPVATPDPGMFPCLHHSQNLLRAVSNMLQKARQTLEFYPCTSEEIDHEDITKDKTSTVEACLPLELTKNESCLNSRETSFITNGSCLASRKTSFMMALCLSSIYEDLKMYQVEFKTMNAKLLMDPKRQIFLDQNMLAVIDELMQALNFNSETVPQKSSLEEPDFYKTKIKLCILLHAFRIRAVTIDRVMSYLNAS
Sequence of IL-12 (human, p35/p40 heterodimer) (Homo sapiens) (P29460 23-328, chain 2 of 2): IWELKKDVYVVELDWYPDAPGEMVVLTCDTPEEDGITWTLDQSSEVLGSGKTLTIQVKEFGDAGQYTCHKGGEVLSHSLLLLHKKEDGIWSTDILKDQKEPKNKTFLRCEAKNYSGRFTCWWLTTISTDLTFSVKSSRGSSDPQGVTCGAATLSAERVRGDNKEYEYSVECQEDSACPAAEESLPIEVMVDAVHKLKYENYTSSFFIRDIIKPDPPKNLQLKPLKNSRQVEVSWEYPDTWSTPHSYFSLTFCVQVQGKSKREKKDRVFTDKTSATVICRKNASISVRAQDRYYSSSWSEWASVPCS

Sequence of IL-23 (human, p19/p40 heterodimer) (Homo sapiens) (Q9NPF7 20-189, chain 1 of 2): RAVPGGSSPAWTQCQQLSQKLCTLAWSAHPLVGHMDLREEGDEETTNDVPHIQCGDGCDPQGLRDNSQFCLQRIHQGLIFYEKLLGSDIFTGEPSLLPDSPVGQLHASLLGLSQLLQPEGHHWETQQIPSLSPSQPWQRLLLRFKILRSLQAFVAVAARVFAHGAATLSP
Sequence of IL-23 (human, p19/p40 heterodimer) (Homo sapiens) (P29460 23-328, chain 2 of 2): as the sequence (P29460 23-328, chain 2 of 2) above

Sequence: ACAGGCAAGUAAUUGGGGAGUGCGGGCGGGGUGU [ARC1466]
- Kd ([1]; deoxy A,G, 2'-OMe C,U, PEG spacers between stem 1 strands and core, 3'-idT, DPBS Ca Mg): 1.9 nM

Sequence: ACAGGCAAGUAAUUGGGGAGUGCGGGCGGGGUGU [ARC1592]
- Kd ([1]; deoxy A,G, 2'-OMe C,U, dI at G5, 3'-idT [dI at 5 (parent G), 2'-OMe C,U at 2,6,10,13,14,21,23,27,32,34, deoxy A,G elsewhere, 3'-inverted dT at 35], DPBS Ca Mg): 8.1 nM

Sequence: ACAGGCAAGUAAUUGGGGAGUGCGGGCGGGGUGU [ARC1593]
- Kd ([1]; deoxy A,G, 2'-OMe C,U, dI at G4,G5, 3'-idT [dI at 4,5 (parent G), 2'-OMe C,U at 2,6,10,13,14,21,23,27,32,34, deoxy A,G elsewhere, 3'-inverted dT at 35], DPBS Ca Mg): 13.8 nM

Sequence: ACAGGCAAGUAAUUGGGGAGUGCGGGCGGGGUGU [ARC1594]
- Kd ([1]; deoxy A,G, 2'-OMe C,U, dI at G9, 3'-idT [dI at 9 (parent G), 2'-OMe C,U at 2,6,10,13,14,21,23,27,32,34, deoxy A,G elsewhere, 3'-inverted dT at 35], DPBS Ca Mg): 4.2 nM

Sequence: ACAGGCAAGUAAUUGGGGAGUGCGGGCGGGGUGU [ARC1595]
- Kd ([1]; deoxy A,G, 2'-OMe C,U, dI at G15, 3'-idT [dI at 15 (parent G), 2'-OMe C,U at 2,6,10,13,14,21,23,27,32,34, deoxy A,G elsewhere, 3'-inverted dT at 35], DPBS Ca …): 5.4 nM

Sequence: ACAGGCAAGUAAUUGGGGAGUGCGGGCGGGGUGU [ARC1596]
- Kd ([1]; deoxy A,G, 2'-OMe C,U, dI at G16, 3'-idT [dI at 16 (parent G), 2'-OMe C,U at 2,6,10,13,14,21,23,27,32,34, deoxy A,G elsewhere, 3'-inverted dT at 35], DPBS Ca …): 11.1 nM

Sequence: ACAGGCAAGUAAUUGGGGAGUGCGGGCGGGGUGU [ARC1597]
- Kd ([1]; deoxy A,G, 2'-OMe C,U, dI at G17, 3'-idT [17], DPBS Ca Mg): 11.2 nM

Sequence: ACAGGCAAGUAAUUGGGGAGUGCGGGCGGGGUGU [ARC1598]
- Kd ([1]; deoxy A,G, 2'-OMe C,U, dI at G18, 3'-idT [18], DPBS Ca Mg): 4.7 nM

Sequence: ACAGGCAAGUAAUUGGGGAGUGCGGGCGGGGUGU [ARC1599]
- Kd ([1]; deoxy A,G, 2'-OMe C,U, dI at G15,G16, 3'-idT [15,16], DPBS Ca Mg): 7.2 nM

Sequence: ACAGGCAAGUAAUUGGGGAGUGCGGGCGGGGUGU [ARC1600]
- Kd ([1]; deoxy A,G, 2'-OMe C,U, dI at G16,G17, 3'-idT [16,17], DPBS Ca Mg): 15.6 nM

Sequence: ACAGGCAAGUAAUUGGGGAGUGCGGGCGGGGUGU [ARC1601]
- Kd ([1]; deoxy A,G, 2'-OMe C,U, dI at G17,G18, 3'-idT [17,18], DPBS Ca Mg): 4.4 nM

Sequence: ACAGGCAAGUAAUUGGGGAGUGCGGGCGGGGUGU [ARC1602]
- Kd ([1]; dRmY, deoxyinosine at G15-G18, 3'-idT [deoxyinosine at 15-18 (parent base G written), 2'-deoxy purines, 2'-OMe C/U (2,6,10,13,14,21,23,27,32,34), 3'-inverted dT at 35], dot blot, DPBS with Ca and Mg, 0.1 mg/mL BSA, 30 min RT): 40.8 nM

Sequence: ACAGGCAAGUAAUUGGGGAGUGCGGGCGGGGUGU [ARC1603]
- Kd ([1]; deoxy A,G, 2'-OMe C,U, dI at G20, 3'-idT [20], DPBS Ca Mg): 1.6 nM

Sequence: ACAGGCAAGUAAUUGGGGAGUGCGGGCGGGGUGU [ARC1604]
- Kd ([1]; deoxy A,G, 2'-OMe C,U, dI at G22, 3'-idT [22], DPBS Ca Mg): 2.1 nM

Sequence: ACAGGCAAGUAAUUGGGGAGUGCGGGCGGGGUGU [ARC1605]
- Kd ([1]; deoxy A,G, 2'-OMe C,U, dI at G24, 3'-idT [24], DPBS Ca Mg): 7.5 nM

Sequence: ACAGGCAAGUAAUUGGGGAGUGCGGGCGGGGUGU [ARC1606]
- Kd ([1]; deoxy A,G, 2'-OMe C,U, dI at G25, 3'-idT [25], DPBS Ca Mg): 5 nM

Sequence: ACAGGCAAGUAAUUGGGGAGUGCGGGCGGGGUGU [ARC1607]
- Kd ([1]; deoxy A,G, 2'-OMe C,U, dI at G26, 3'-idT [26], DPBS Ca Mg): 3.3 nM

Sequence: ACAGGCAAGUAAUUGGGGAGUGCGGGCGGGGUGU [ARC1608]
- Kd ([1]; deoxy A,G, 2'-OMe C,U, dI at G24,G25, 3'-idT [24,25], DPBS Ca Mg): 9.7 nM

Sequence: ACAGGCAAGUAAUUGGGGAGUGCGGGCGGGGUGU [ARC1609]
- Kd ([1]; deoxy A,G, 2'-OMe C,U, dI at G25,G26, 3'-idT [25,26], DPBS Ca Mg): 4.7 nM

Sequence: ACAGGCAAGUAAUUGGGGAGUGCGGGCGGGGUGU [ARC1610]
- Kd ([1]; deoxy A,G, 2'-OMe C,U, dI at G24-G26, 3'-idT [dI at 24,25,26 (G parent), 2'-OMe C/U at 2,6,10,13,14,21,23,27,32,34, other A,G deoxy, 3'-inverted dT at 35], DPBS Ca Mg): 5.2 nM

Sequence: ACAGGCAAGUAAUUGGGGAGUGCGGGCGGGGUGU [ARC1611]
- Kd ([1]; deoxy A,G, 2'-OMe C,U, dI at G28, 3'-idT [dI at 28 (G parent), 2'-OMe C/U at 2,6,10,13,14,21,23,27,32,34, other A,G deoxy, 3'-inverted dT at 35], DPBS Ca Mg): 1.7 nM

Sequence: ACAGGCAAGUAAUUGGGGAGUGCGGGCGGGGUGU [ARC1612]
- Kd ([1]; deoxy A,G, 2'-OMe C,U, dI at G29, 3'-idT [dI at 29 (G parent), 2'-OMe C/U at 2,6,10,13,14,21,23,27,32,34, other A,G deoxy, 3'-inverted dT at 35], DPBS Ca Mg): 1.9 nM

Sequence: ACAGGCAAGUAAUUGGGGAGUGCGGGCGGGGUGU [ARC1613]
- Kd ([1]; deoxy A,G, 2'-OMe C,U, dI at G30, 3'-idT [dI at 30 (G parent), 2'-OMe C/U at 2,6,10,13,14,21,23,27,32,34, other A,G deoxy, 3'-inverted dT at 35], DPBS Ca Mg): 2.3 nM

Sequence: ACAGGCAAGUAAUUGGGGAGUGCGGGCGGGGUGU [ARC1614]
- Kd ([1]; deoxy A,G, 2'-OMe C,U, dI at G31, 3'-idT [dI at 31 (G parent), 2'-OMe C/U at 2,6,10,13,14,21,23,27,32,34, other A,G deoxy, 3'-inverted dT at 35], DPBS Ca Mg): 1.7 nM

Sequence: ACAGGCAAGUAAUUGGGGAGUGCGGGCGGGGUGU [ARC1615]
- Kd ([1]; deoxy A,G, 2'-OMe C,U, dI at G28,G29, 3'-idT [dI at 28,29 (G parent), 2'-OMe C/U at 2,6,10,13,14,21,23,27,32,34, other A,G deoxy, 3'-inverted dT at 35], DPBS Ca Mg): 5.8 nM

Sequence: ACAGGCAAGUAAUUGGGGAGUGCGGGCGGGGUGU [ARC1616]
- Kd ([1]; deoxy A,G, 2'-OMe C,U, dI at G29,G30, 3'-idT [dI at 29,30 (G parent), 2'-OMe C/U at 2,6,10,13,14,21,23,27,32,34, other A,G deoxy, 3'-inverted dT at 35], DPBS Ca Mg): 6.1 nM

Sequence: ACAGGCAAGUAAUUGGGGAGUGCGGGCGGGGUGU [ARC1617]
- Kd ([1]; deoxy A,G, 2'-OMe C,U, dI at G30,G31, 3'-idT [dI at 30,31 (G parent), 2'-OMe C/U at 2,6,10,13,14,21,23,27,32,34, other A,G deoxy, 3'-inverted dT at 35], DPBS Ca Mg): 4.1 nM

Sequence: ACAGGCAAGUAAUUGGGGAGUGCGGGCGGGGUGU [ARC1618]
- Kd ([1]; dRmY, deoxyinosine at G28-G31, 3'-idT [deoxyinosine at 28-31 (parent base G written), 2'-deoxy purines, 2'-OMe C/U (2,6,10,13,14,21,23,27,32,34), 3'-inverted dT at 35], dot blot, DPBS with Ca and Mg, 0.1 mg/mL BSA, 30 min RT): 34 nM

Sequence: ACAGGCAAGUAAUUGGGGAGUGCGGGCGGGGUGU [ARC1619]
- Kd ([1]; deoxy A,G, 2'-OMe C,U, dI at G33, 3'-idT [dI at 33 (G parent), 2'-OMe C/U at 2,6,10,13,14,21,23,27,32,34, other A,G deoxy, 3'-inverted dT at 35], DPBS Ca Mg): 2.8 nM

Sequence: CGCAGGCAAGUAAUUGGGGAGUGCGGGCGGGGUGCG [ARC1467]
- Kd ([1]; 2'-OMe C,U and some stem G, PEG spacers between stem 1 strands and core, 3'-idT, DPBS Ca Mg): 1.7 nM

Sequence: GGAGCGCACUCAGCCACGGUUUACUUCCGUGGCAAUAUUGACCUCNCUCUAGACAGGUUUCGACCUCUCUGCUAGC [AMX369.F1]
- Kd [2]: 165 nM
- Kd [3]: 63 nM

Sequence: GGAGCGCACUCAGCCACUGGGGAACAUCUCAUGUCUCUGACCGCUCUUGCAGUAGAAUUUNGACCUCUCUGCUAGC [AMX369.G3]
- Kd [2]: 261 nM
- Kd [3]: 106 nM

Sequence: GGAGCGCACUCNGCCACUUCGGAAUAUCGUUGUCUUCUGGGUGAGCAUGCGUUGAGGUUUCNACCUCUCUGCUAGC [AMX369.B2]
- Kd [2]: 252 nM
- Kd [3]: 49 nM

Sequence: GGGAAAAGCGAAUCAUACACAAGAGCGCUUUAGCGGGUAUAGCACUUUUCAUCUAAUGAANCCGUAGCUCCGCCAGAGACCAACCGAGAA [AMX86-H11]
- Kd ([1]; 2'-F C,U, SHMCK, tRNA): 367 nM
- Kd ([4]; 2'-F C,U, tRNA): 215 nM

Sequence: GGGAAAAGCGAAUCAUACACAAGAGGUUGAGUACGACGGAGUCNUGGCUAACACGGAAACUAGAGCUCCGCCAGAGACCAACCGAGAA [AMX86-B9]
- Kd ([1]; 2'-F C,U, SHMCK, tRNA): 23.7 nM
- Kd ([4]; 2'-F C,U, tRNA): 848 nM

Sequence: GGGAAAAGCGAAUCAUACACAAGAUGUUGAACCUCUUGUGCGUCCCGAUGUUUNGCAAUGUGGAGCUCCGCCAGAGACCAACCGAGAA [AMX86-F7]
- Kd ([1]; 2'-F all C and U (rRfY), 1X SHMCK, 1 mM Mg, 1 mM Ca, 0.1 mg/mL tRNA, RT): 147 nM
- Kd ([4]; 2'-F all C and U (rRfY), 1X SHMCK, 0.1 mg/mL tRNA, RT): 106 nM

Sequence: GGGAAAAGCGAAUCCUACCCAAGAUGUUGUUGGCGUUGAUCGUAUGAUUNAUGGAGNGUGUCNGUGCUCCGCCAGAGACCAACCGAGAA [AMX86-E7]
- Kd ([1]; 2'-F C,U, SHMCK, tRNA): 210 nM
- Kd ([4]; 2'-F C,U, tRNA): 268 nM

Sequence: GGGAGAGGAGAGAACGUUCUACGGAAGGNAACAANAGCACUGUUUGUGCAGGCGCUGUCGAUCNAUCNAUCNAUG [rRmY clone SEQ 85]
- Kd ([1]; 2'-OMe C,U, DPBS Ca Mg): 240 nM
